In PMC3436176:

Target: III-30A (human)
Assay: ELISA

GPVIex (recombinant extracellular domain of GPVI), sequence (Q9HCN6 21-214): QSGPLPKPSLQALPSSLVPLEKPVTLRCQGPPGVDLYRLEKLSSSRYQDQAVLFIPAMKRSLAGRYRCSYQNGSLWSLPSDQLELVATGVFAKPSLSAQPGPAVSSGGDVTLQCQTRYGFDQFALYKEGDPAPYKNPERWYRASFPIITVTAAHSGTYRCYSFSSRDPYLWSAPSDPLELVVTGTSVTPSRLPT

Kd: 10.2 µM
Substance: GPVIex (recombinant extracellular domain of GPVI) (from UniProt Q9HCN6 21-214) (domain or fragment)
